{"source": "the Human Domainome abundance scans (Beltran et al. 2025)", "parents": {"B1": {"name": "E3 ubiquitin-protein ligase Midline-1, residues 172 to 214; numbered along this chain, O15344 (parent)", "chain": "GLMCLEHEDEKVNMYCVTDDQLICALCKLVGRHRDHQVAALSE"}}, "note": "± gives the uncertainty stated by the source."}
{"variants_of": "B1", "assay": "abundance fitness (aPCA) (normalised: wild type 0, dead -1); higher = more abundant; growth selection in yeast, the domain comes from the species named", "conditions": "Homo sapiens"}
{"variant": "GLMCAEHEDEKVNMYCVTDDQLICALCKLVGRHRDHQVAALSE", "note": "[L5A]", "abundance fitness": "0.023 ± 0.051"}
{"variant": "GLMCCEHEDEKVNMYCVTDDQLICALCKLVGRHRDHQVAALSE", "note": "[L5C]", "abundance fitness": "0.055 ± 0.11"}
{"variant": "GLMCDEHEDEKVNMYCVTDDQLICALCKLVGRHRDHQVAALSE", "note": "[L5D]", "abundance fitness": "0.039 ± 0.12"}
{"variant": "GLVCLEHEDEKVNMYCVTDDQLICALCKLVGRHRDHQVAALSE", "note": "[M3V]", "abundance fitness": "-0.144 ± 0.075"}
{"variant": "GLKCLEHEDEKVNMYCVTDDQLICALCKLVGRHRDHQVAALSE", "note": "[M3K]", "abundance fitness": "-0.006 ± 0.083"}
{"variant": "GLSCLEHEDEKVNMYCVTDDQLICALCKLVGRHRDHQVAALSE", "note": "[M3S]", "abundance fitness": "0.006 ± 0.06"}
{"variant": "GLACLEHEDEKVNMYCVTDDQLICALCKLVGRHRDHQVAALSE", "note": "[M3A]", "abundance fitness": "-0.022 ± 0.12"}
{"variant": "GLTCLEHEDEKVNMYCVTDDQLICALCKLVGRHRDHQVAALSE", "note": "[M3T]", "abundance fitness": "-0.166 ± 0.093"}
{"variant": "GLQCLEHEDEKVNMYCVTDDQLICALCKLVGRHRDHQVAALSE", "note": "[M3Q]", "abundance fitness": "-0.276 ± 0.14"}
{"variant": "GLWCLEHEDEKVNMYCVTDDQLICALCKLVGRHRDHQVAALSE", "note": "[M3W]", "abundance fitness": "-0.333 ± 0.086"}
{"variant": "GLLCLEHEDEKVNMYCVTDDQLICALCKLVGRHRDHQVAALSE", "note": "[M3L]", "abundance fitness": "-0.05 ± 0.072"}
{"variant": "GLRCLEHEDEKVNMYCVTDDQLICALCKLVGRHRDHQVAALSE", "note": "[M3R]", "abundance fitness": "-0.101 ± 0.057"}
{"variant": "GLYCLEHEDEKVNMYCVTDDQLICALCKLVGRHRDHQVAALSE", "note": "[M3Y]", "abundance fitness": "-0.229 ± 0.26"}
{"variant": "GLCCLEHEDEKVNMYCVTDDQLICALCKLVGRHRDHQVAALSE", "note": "[M3C]", "abundance fitness": "-0.21 ± 0.21"}
{"variant": "GLHCLEHEDEKVNMYCVTDDQLICALCKLVGRHRDHQVAALSE", "note": "[M3H]", "abundance fitness": "0.14 ± 0.1"}
{"variant": "GLPCLEHEDEKVNMYCVTDDQLICALCKLVGRHRDHQVAALSE", "note": "[M3P]", "abundance fitness": "-0.309 ± 0.093"}
{"variant": "GLECLEHEDEKVNMYCVTDDQLICALCKLVGRHRDHQVAALSE", "note": "[M3E]", "abundance fitness": "-0.332 ± 0.1"}
{"variant": "GLFCLEHEDEKVNMYCVTDDQLICALCKLVGRHRDHQVAALSE", "note": "[M3F]", "abundance fitness": "0.111 ± 0.13"}
{"variant": "GLNCLEHEDEKVNMYCVTDDQLICALCKLVGRHRDHQVAALSE", "note": "[M3N]", "abundance fitness": "0.019 ± 0.16"}
{"variant": "GLICLEHEDEKVNMYCVTDDQLICALCKLVGRHRDHQVAALSE", "note": "[M3I]", "abundance fitness": "0.089 ± 0.11"}
{"variant": "GLDCLEHEDEKVNMYCVTDDQLICALCKLVGRHRDHQVAALSE", "note": "[M3D]", "abundance fitness": "0.018 ± 0.21"}
{"variant": "GFMCLEHEDEKVNMYCVTDDQLICALCKLVGRHRDHQVAALSE", "note": "[L2F]", "abundance fitness": "-0.298 ± 0.33"}
{"variant": "GHMCLEHEDEKVNMYCVTDDQLICALCKLVGRHRDHQVAALSE", "note": "[L2H]", "abundance fitness": "0.147 ± 0.085"}
{"variant": "GIMCLEHEDEKVNMYCVTDDQLICALCKLVGRHRDHQVAALSE", "note": "[L2I]", "abundance fitness": "0.257 ± 0.12"}
{"variant": "GAMCLEHEDEKVNMYCVTDDQLICALCKLVGRHRDHQVAALSE", "note": "[L2A]", "abundance fitness": "0.483 ± 0.058"}
{"variant": "GYMCLEHEDEKVNMYCVTDDQLICALCKLVGRHRDHQVAALSE", "note": "[L2Y]", "abundance fitness": "0.109 ± 0.17"}
{"variant": "GTMCLEHEDEKVNMYCVTDDQLICALCKLVGRHRDHQVAALSE", "note": "[L2T]", "abundance fitness": "0.51 ± 0.069"}
{"variant": "GDMCLEHEDEKVNMYCVTDDQLICALCKLVGRHRDHQVAALSE", "note": "[L2D]", "abundance fitness": "0.674 ± 0.13"}
{"variant": "GMMCLEHEDEKVNMYCVTDDQLICALCKLVGRHRDHQVAALSE", "note": "[L2M]", "abundance fitness": "0.544 ± 0.066"}
{"variant": "GEMCLEHEDEKVNMYCVTDDQLICALCKLVGRHRDHQVAALSE", "note": "[L2E]", "abundance fitness": "0.611 ± 0.056"}
{"variant": "GVMCLEHEDEKVNMYCVTDDQLICALCKLVGRHRDHQVAALSE", "note": "[L2V]", "abundance fitness": "0.233 ± 0.061"}
{"variant": "GSMCLEHEDEKVNMYCVTDDQLICALCKLVGRHRDHQVAALSE", "note": "[L2S]", "abundance fitness": "0.279 ± 0.066"}
{"variant": "GKMCLEHEDEKVNMYCVTDDQLICALCKLVGRHRDHQVAALSE", "note": "[L2K]", "abundance fitness": "0.795 ± 0.1"}
{"variant": "GCMCLEHEDEKVNMYCVTDDQLICALCKLVGRHRDHQVAALSE", "note": "[L2C]", "abundance fitness": "0.19 ± 0.092"}
{"variant": "GQMCLEHEDEKVNMYCVTDDQLICALCKLVGRHRDHQVAALSE", "note": "[L2Q]", "abundance fitness": "0.063 ± 0.11"}
{"variant": "GLMPLEHEDEKVNMYCVTDDQLICALCKLVGRHRDHQVAALSE", "note": "[C4P]", "abundance fitness": "-1.18 ± 0.29"}
{"variant": "GLMELEHEDEKVNMYCVTDDQLICALCKLVGRHRDHQVAALSE", "note": "[C4E]", "abundance fitness": "-0.441 ± 0.096"}
{"variant": "GLMSLEHEDEKVNMYCVTDDQLICALCKLVGRHRDHQVAALSE", "note": "[C4S]", "abundance fitness": "-0.295 ± 0.085"}
{"variant": "GLMYLEHEDEKVNMYCVTDDQLICALCKLVGRHRDHQVAALSE", "note": "[C4Y]", "abundance fitness": "-0.594 ± 0.2"}
{"variant": "GLMWLEHEDEKVNMYCVTDDQLICALCKLVGRHRDHQVAALSE", "note": "[C4W]", "abundance fitness": "-0.439 ± 0.12"}
{"variant": "GLMRLEHEDEKVNMYCVTDDQLICALCKLVGRHRDHQVAALSE", "note": "[C4R]", "abundance fitness": "-0.647 ± 0.086"}
{"variant": "GLMTLEHEDEKVNMYCVTDDQLICALCKLVGRHRDHQVAALSE", "note": "[C4T]", "abundance fitness": "-0.078 ± 0.13"}
{"variant": "GLMHLEHEDEKVNMYCVTDDQLICALCKLVGRHRDHQVAALSE", "note": "[C4H]", "abundance fitness": "-0.221 ± 0.24"}
{"variant": "GLMQLEHEDEKVNMYCVTDDQLICALCKLVGRHRDHQVAALSE", "note": "[C4Q]", "abundance fitness": "-0.314 ± 0.079"}
{"variant": "GLMGLEHEDEKVNMYCVTDDQLICALCKLVGRHRDHQVAALSE", "note": "[C4G]", "abundance fitness": "-0.713 ± 0.083"}
{"variant": "GLMDLEHEDEKVNMYCVTDDQLICALCKLVGRHRDHQVAALSE", "note": "[C4D]", "abundance fitness": "-0.343 ± 0.083"}
{"variant": "GLMVLEHEDEKVNMYCVTDDQLICALCKLVGRHRDHQVAALSE", "note": "[C4V]", "abundance fitness": "-0.944 ± 0.14"}
{"variant": "GLMALEHEDEKVNMYCVTDDQLICALCKLVGRHRDHQVAALSE", "note": "[C4A]", "abundance fitness": "-0.699 ± 0.11"}
{"variant": "KLMCLEHEDEKVNMYCVTDDQLICALCKLVGRHRDHQVAALSE", "note": "[G1K]", "abundance fitness": "0.061 ± 0.29"}
{"variant": "VLMCLEHEDEKVNMYCVTDDQLICALCKLVGRHRDHQVAALSE", "note": "[G1V]", "abundance fitness": "-0.211 ± 0.072"}
{"variant": "ELMCLEHEDEKVNMYCVTDDQLICALCKLVGRHRDHQVAALSE", "note": "[G1E]", "abundance fitness": "0.134 ± 0.087"}
{"variant": "YLMCLEHEDEKVNMYCVTDDQLICALCKLVGRHRDHQVAALSE", "note": "[G1Y]", "abundance fitness": "-0.192 ± 0.15"}
{"variant": "ALMCLEHEDEKVNMYCVTDDQLICALCKLVGRHRDHQVAALSE", "note": "[G1A]", "abundance fitness": "-0.361 ± 0.087"}
{"variant": "WLMCLEHEDEKVNMYCVTDDQLICALCKLVGRHRDHQVAALSE", "note": "[G1W]", "abundance fitness": "-0.611 ± 0.2"}
{"variant": "DLMCLEHEDEKVNMYCVTDDQLICALCKLVGRHRDHQVAALSE", "note": "[G1D]", "abundance fitness": "0.306 ± 0.091"}
{"variant": "SLMCLEHEDEKVNMYCVTDDQLICALCKLVGRHRDHQVAALSE", "note": "[G1S]", "abundance fitness": "-0.184 ± 0.11"}
{"variant": "TLMCLEHEDEKVNMYCVTDDQLICALCKLVGRHRDHQVAALSE", "note": "[G1T]", "abundance fitness": "-0.235 ± 0.27"}
{"variant": "PLMCLEHEDEKVNMYCVTDDQLICALCKLVGRHRDHQVAALSE", "note": "[G1P]", "abundance fitness": "-0.112 ± 0.23"}
{"variant": "RLMCLEHEDEKVNMYCVTDDQLICALCKLVGRHRDHQVAALSE", "note": "[G1R]", "abundance fitness": "-0.081 ± 0.078"}
